Entries after “also recorded” stand apart in the source; their conditions may differ.
What was measured:
[1] = tested on: isolated LSECs (liver sinusoidal endothelial cells); experiment: SEM of fenestrations in isolated LSECs from young and old mice after 30 min drug treatment (second Example 7); assay type: cell-based; conditions: for Diameter / Frequency / Porosity: 30 min
[2] = tested on: LSEC fenestrations; experiment: SEM of LSEC fenestrations after drug treatments (Example 2, FIGS. 1-6); assay type: cell-based, mice; conditions: for change in fenestration diameter: Bosentan 0.1 μM, Sildenafil 300 ng/ml, TRAIL 1 μg/ml
How it was run: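 Liver cells from young (3-4) and old (20-24 months) C57B16 mice, n=3 each, incubated 30 mins at 37° C, 5% CO2 in RPMI with or without drug; livers perfusion-fixed in 1% glutaraldehyde/4% para-formaldehyde. Blinded SEM at 10,000×; values are mean±SD of 8 images, 616-3312 fenestrations per treatment.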

[3] = tested on: actin cytoskeleton of LSECs; experiment: dSTORM imaging of the actin cytoskeleton; assay type: cell-based; conditions: young mice
How it was run: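 LSECs fixed in 4% paraformaldehyde, permeabilised with Triton-X, blocked with 5% BSA and stained with Alexa Fluor 488 phalloidin, then imaged by dSTORM in OxEA buffer (up to 40,000 frames at ~75 fps). 5-8 whole-cell images per dose, collected blinded, were reconstructed and analysed for sieve plates, actin structures and densitometry.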

[4] = tested on: Intracellular cGMP; experiment: Cyclic GMP ELISA; assay type: cell-based, mice; conditions: p=0.001
Experimental: Assays for MTT and cGMP were performed as instructed by the kit. Briefly, MTT assays were performed following drug treatments. Cells were washed with PBS and incubated with RPMI media containing […] MTT solution. Cells were incubated at 37° C. for 4 hrs and lysed with […] solubilisation solution, 30 mins colour development followed and measured at 570 nm using a spectrophotometer. cGMP assays were also performed after drug treatments. Cells were washed with PBS and lysed with 0.1M HCl. Following sample collection the sample was acetylated and prepared with kit reagents. Samples were incubated for 18 hrs at 4° C. before examination at 410 nm with a spectrophotometer.

[5] = tested on: human umbilical vein endothelial cells; conditions: 15 mins of 1 μg/ml treatment; cited from earlier work

B1: Tumor necrosis factor-related apoptosis inducing ligand (protein, UniProt P50591 1-281, looked up)
Tumor necrosis factor ligand …: MAMMEVQGGPSLGQTCVLIVIFTVLLQSLCVAVTYVYFTNELKQMQDKYSKSGIACFLKEDDSYWDPNDEESMNSPCWQVKWQLRQLVRKMILRTSEETISTVQEKQQNISPLVRERGPQRVAAHITGTRGRSNTLSSPNSKNEKALGRKINSWESSRSGHSFLSNLHLRNGELVIHEKGFYYIYSQTYFRFQEEIKENTKNDKQMVQYIYKYTSYPDPILLMKSARNSCWSKDAEYGLYSIYQGGIFELKENDRIFVSVTNEHLIDMDHEASFFGAFLVG
notes: death receptor 4/5 promoter
[1]; old mice, 1 ng/ml
  Diameter: 127.50 ± 15.53 nm
  Frequency: 1.97 ± 0.49 no/area
  Porosity: 2.79 ± 0.14%
[1]; old mice, 10 ng/ml
  Diameter: 120.08 ± 3.74 nm
  Frequency: 2.13 ± 0.48 no/area
  Porosity: 2.85 ± 0.53%
[1]; old mice, 100 ng/ml
  Diameter: 130.88 ± 17.00 nm
  Frequency: 2.03 ± 0.53 no/area
  Porosity: 2.97 ± 0.46%
[1]; young and old LSECs
  effect on porosity and fenestration frequency (summary in words): LSECs from young mice only demonstrated significant increases in porosity and frequency
[1]; young mice
  dose response on fenestration porosity (words): did not promote greater changes in fenestration porosity or frequency; also recorded: had the greatest activity and similar maximal efficacy to NMN but was more potent; also recorded: limited dosage range for positive effects on fenestration porosity
  increase in fenestration frequency: 40%
  increase in porosity: 60%
[1]; young mice, 1 ng/ml
  Diameter: 137.95 ± 8.12 nm
  Frequency: 4.47 ± 0.43 no/area
  Porosity: 7.17 ± 1.49 %
[1]; young mice, 10 ng/ml
  Change in Porosity, Young: ↑ (ns)
  Diameter: 140.36 ± 3.22 nm
  Frequency: 3.73 ± 0.46 no/area
  Porosity: 6.24 ± 0.52 %
[1]; young mice, 100 ng/ml
  Diameter: 145.87 ± 6.77 nm
  Frequency: 3.15 ± 0.27 no/area
  Porosity: 5.49 ± 0.63%
[1]; young mice, sildenafil 0.3 μg/ml, amlodipine 20 ng/ml, TRAIL 1 ng/ml
  fenestration numbers, fenestrated cell area and sieve plate formation: increased fenestration numbers and overall fenestrated cell area with some disruption to sieve plate formation
[2]; old mice
  sieve plate grouping on SEM images: greater fenestration sieve plate grouping
[2]; old mice, 1 μg/ml
  fenestration porosity: 2.7±0.1%
[2]; old mice, 7KC 4.5 μM
  change in fenestration diameter: No changes in diameter
[2]; young and old mice
  sieve plates and fenestration density on SEM images: promoted increased fenestration density and maintained sieve plate fenestration clustering
[2]; young mice, 1 μg/ml
  fenestration frequency: 4.5±0.4 number/μm^2
  fenestration porosity: 7.2±1.5%
[2]; young mice
  change in fenestration diameter: No changes in diameter
[3]
  actin changes with drug treatments (dSTORM): absence of the intense actin clustering; also recorded: Disordered actin structure; also recorded: Gap formations; also recorded: Minimal actin clustering
[4]
  increase of intracellular cGMP: 3 fold
[5]
  NOS and phosphorylated NOS: upregulate NOS and phosphorylated NOS
